US20250163145A1 (SHIONOGI, published 2025)
Where no end group is shown, it is not given here.

T1: epitope peptide Cys-CE3C long (also: biotin label, site not given here)
T1 peptide: CSVNVDKQPKYEYSL

B1: humanized antibody h15H11 (IGHV7-4-1 Q43R, G44S, R94P / IGKV7-3 Y36F, V78M) (antibody, human IgG4 S228P, kappa, V domains shown)
VH: QVQLVQSGSELKKPGASVKVSCKASGYTFTDYNMHWVRQAPGRSLEWMGRINPKNGVINSNEKFKDRFVFSLDTSVSTAYLQISSLKAEDTAVYYCAPSYYGGNTDAYWGQGTLVTVSS
VL: DIVLTQSPASLAVSPGQRATITCRASESVDNYGISFMNWFQQKPGQPPKLLIYAASSQGSGVPARFSGSGSGTDFTLTINPMEANDTANYYCQQSKEFPWTFGGGTKVEIKR
notes: hIgG4Pro/hIgK; also called h15H11-WT; h15H11-wt
B2: h15H11-13 (antibody, human IgG4 S228P, kappa, V domains shown)
VH: QVQLVQSGSELKKPGASVKVSCKASGYTFTEYNMHWVRQAPGRSLEWMGRINPKNGVINSNEKFKDRFVFSLDTSVSTAYLQISSLKAEDTAVYYCAPSYYGGNDDAYWGQGTLVTVSS
VL: DIVLTQSPASLAVSPGQRATITCRASDSVDNYGISFLNWFQQKPGQPPKLLIYAASSQGSGVPARFSGSGSGTDFTLTINPMEANDTANYYCQQSKEFPWTFGGGTKVEIKR
notes: hIgG4Pro/hIgK
B3: h15H11-12 (antibody, human IgG4 S228P, kappa, V domains shown)
VH: QVQLVQSGSELKKPGASVKVSCKASGYTFTEYNMHWVRQAPGRSLEWMGRINPKNGVILSNEKFKDRFVFSLDTSVSTAYLQISSLKAEDTAVYYCAPSYYGGDTDAYWGQGTLVTVSS
VL: DIVLTQSPASLAVSPGQRATITCRASESVDNYGISFMNWFQQKPGQPPKLLIYAASSQGSGVPARFSGSGSGTDFTLTINPMEANDTANYYCQQSKEFPWTFGGGTKVEIKR
notes: hIgG4Pro/hIgK
B4: h15H11-1 (antibody, human IgG4 S228P, kappa, V domains shown)
VH: QVQLVQSGSELKKPGASVKVSCKASGYTFTEYNMHWVRQAPGRSLEWMGRINPKNGVILSNEKFKDRFVFSLDTSVSTAYLQISSLKAEDTAVYYCAPSYYGGDDDAYWGQGTLVTVSS
VL: DIVLTQSPASLAVSPGQRATITCRASDSVDNYGISFLNWFQQKPGQPPKLLIYAASSQGSGVPARFSGSGSGTDFTLTINPMEANDTANYYCQQSKEFPWTFGGGTKVEIKR
notes: hIgG4Pro/hIgK
B5: h15H11-6 (antibody, human IgG4 S228P, kappa, V domains shown)
VH: QVQLVQSGSELKKPGASVKVSCKASGYTFTDYNMHWVRQAPGRSLEWMGRINPKNGVINSNEKFKDRFVFSLDTSVSTAYLQISSLKAEDTAVYYCAPSYYGGDDDAYWGQGTLVTVSS
VL: DIVLTQSPASLAVSPGQRATITCRASDSVDNYGISFLNWFQQKPGQPPKLLIYAASSQGSGVPARFSGSGSGTDFTLTINPMEANDTANYYCQQSKEFPWTFGGGTKVEIKR
notes: hIgG4Pro/hIgK
B6: h15H11-11 (antibody, human IgG4 S228P, kappa, V domains shown)
VH: QVQLVQSGSELKKPGASVKVSCKASGYTFTDYNMHWVRQAPGRSLEWMGRINPKNGVILSNEKFKDRFVFSLDTSVSTAYLQISSLKAEDTAVYYCAPSYYGGDTDAYWGQGTLVTVSS
VL: DIVLTQSPASLAVSPGQRATITCRASDSVDNYGISFLNWFQQKPGQPPKLLIYAASSQGSGVPARFSGSGSGTDFTLTINPMEANDTANYYCQQSKEFPWTFGGGTKVEIKR
notes: hIgG4Pro/hIgK
B7: h15H11-5 (antibody, human IgG4 S228P, kappa, V domains shown)
VH: QVQLVQSGSELKKPGASVKVSCKASGYTFTEYNMHWVRQAPGRSLEWMGRINPKNGVILSNEKFKDRFVFSLDTSVSTAYLQISSLKAEDTAVYYCAPSYYGGDTDAYWGQGTLVTVSS
VL: DIVLTQSPASLAVSPGQRATITCRASDSVDNYGISFLNWFQQKPGQPPKLLIYAASSQGSGVPARFSGSGSGTDFTLTINPMEANDTANYYCQQSKEFPWTFGGGTKVEIKR
notes: hIgG4Pro/hIgK
B8: h15H11-20 (antibody, human IgG4 S228P, kappa, V domains shown)
VH: QVQLVQSGSELKKPGASVKVSCKASGYTFTDYNMHWVRQAPGRSLEWMGRINPKNGVINSNEKFKDRFVFSLDTSVSTAYLQISSLKAEDTAVYYCAPSYYGGNDDAYWGQGTLVTVSS
VL: DIVLTQSPASLAVSPGQRATITCRASESVDNYGISFMNWFQQKPGQPPKLLIYAASSQGSGVPARFSGSGSGTDFTLTINPMEANDTANYYCQQSKEFPWTFGGGTKVEIKR
notes: hIgG4Pro/hIgK
B9: h15H11-7 (antibody, human IgG4 S228P, kappa, V domains shown)
VH: QVQLVQSGSELKKPGASVKVSCKASGYTFTEYNMHWVRQAPGRSLEWMGRINPKNGVILSNEKFKDRFVFSLDTSVSTAYLQISSLKAEDTAVYYCAPSYYGGNDDAYWGQGTLVTVSS
VL: DIVLTQSPASLAVSPGQRATITCRASDSVDNYGISFLNWFQQKPGQPPKLLIYAASSQGSGVPARFSGSGSGTDFTLTINPMEANDTANYYCQQSKEFPWTFGGGTKVEIKR
notes: hIgG4Pro/hIgK
B10: h15H11-9 (antibody, human IgG4 S228P, kappa, V domains shown)
VH: QVQLVQSGSELKKPGASVKVSCKASGYTFTDYNMHWVRQAPGRSLEWMGRINPKNGVILSNEKFKDRFVFSLDTSVSTAYLQISSLKAEDTAVYYCAPSYYGGNDDAYWGQGTLVTVSS
VL: DIVLTQSPASLAVSPGQRATITCRASDSVDNYGISFLNWFQQKPGQPPKLLIYAASSQGSGVPARFSGSGSGTDFTLTINPMEANDTANYYCQQSKEFPWTFGGGTKVEIKR
notes: hIgG4Pro/hIgK
B11: h15H11-8 (antibody, human IgG4 S228P, kappa, V domains shown)
VH: QVQLVQSGSELKKPGASVKVSCKASGYTFTDYNMHWVRQAPGRSLEWMGRINPKNGVILSNEKFKDRFVFSLDTSVSTAYLQISSLKAEDTAVYYCAPSYYGGNDDAYWGQGTLVTVSS
VL: DIVLTQSPASLAVSPGQRATITCRASESVDNYGISFMNWFQQKPGQPPKLLIYAASSQGSGVPARFSGSGSGTDFTLTINPMEANDTANYYCQQSKEFPWTFGGGTKVEIKR
notes: hIgG4Pro/hIgK
B12: h15H11-19 (antibody, human IgG4 S228P, kappa, V domains shown)
VH: QVQLVQSGSELKKPGASVKVSCKASGYTFTEYNMHWVRQAPGRSLEWMGRINPKNGVINSNEKFKDRFVFSLDTSVSTAYLQISSLKAEDTAVYYCAPSYYGGDTDAYWGQGTLVTVSS
VL: DIVLTQSPASLAVSPGQRATITCRASDSVDNYGISFLNWFQQKPGQPPKLLIYAASSQGSGVPARFSGSGSGTDFTLTINPMEANDTANYYCQQSKEFPWTFGGGTKVEIKR
notes: hIgG4Pro/hIgK
B13: h15H11-18 (antibody, human IgG4 S228P, kappa, V domains shown)
VH: QVQLVQSGSELKKPGASVKVSCKASGYTFTDYNMHWVRQAPGRSLEWMGRINPKNGVINSNEKFKDRFVFSLDTSVSTAYLQISSLKAEDTAVYYCAPSYYGGNDDAYWGQGTLVTVSS
VL: DIVLTQSPASLAVSPGQRATITCRVSDSVDNYGISFLNWFQQKPGQPPKLLIYAASSQGSGVPARFSGSGSGTDFTLTINPMEANDTANYYCQQSKEFPWTFGGGTKVEIKR
notes: hIgG4Pro/hIgK
B14: h15H11-4 (antibody, human IgG4 S228P, kappa, V domains shown)
VH: QVQLVQSGSELKKPGASVKVSCKASGYTFTDYNMHWVRQAPGRSLEWMGRINPKNGVILSNEKFKDRFVFSLDTSVSTAYLQISSLKAEDTAVYYCAPSYYGGDDDAYWGQGTLVTVSS
VL: DIVLTQSPASLAVSPGQRATITCRASESVDNYGISFMNWFQQKPGQPPKLLIYAASSQGSGVPARFSGSGSGTDFTLTINPMEANDTANYYCQQSKEFPWTFGGGTKVEIKR
notes: hIgG4Pro/hIgK
B15: h15H11-17 (antibody, human IgG4 S228P, kappa, V domains shown)
VH: QVQLVQSGSELKKPGASVKVSCKASGYTFTDYNMHWVRQAPGRSLEWMGRINPKNGVINSNEKFKDRFVFSLDTSVSTAYLQISSLKAEDTAVYYCAPSYYGGNDDAYWGQGTLVTVSS
VL: DIVLTQSPASLAVSPGQRATITCRASDSVDNYGISFLNWFQQKPGQPPKLLIYAASSQGSGVPARFSGSGSGTDFTLTINPMEANDTANYYCQQSKEFPWTFGGGTKVEIKR
notes: hIgG4Pro/hIgK
B16: h15H11-15 (antibody, human IgG4 S228P, kappa, V domains shown)
VH: QVQLVQSGSELKKPGASVKVSCKASGYTFTDYNMHWVRQAPGRSLEWMGRINPKNGVILSNEKFKDRFVFSLDTSVSTAYLQISSLKAEDTAVYYCAPSYYGGDTDAYWGQGTLVTVSS
VL: DIVLTQSPASLAVSPGQRATITCRASESVDNYGISFMNWFQQKPGQPPKLLIYAASSQGSGVPARFSGSGSGTDFTLTINPMEANDTANYYCQQSKEFPWTFGGGTKVEIKR
notes: hIgG4Pro/hIgK
B17: h15H11-16 (antibody, human IgG4 S228P, kappa, V domains shown)
VH: QVQLVQSGSELKKPGASVKVSCKASGYTFTEYNMHWVRQAPGRSLEWMGRINPKNGVINSNEKFKDRFVFSLDTSVSTAYLQISSLKAEDTAVYYCAPSYYGGNDDAYWGQGTLVTVSS
VL: DIVLTQSPASLAVSPGQRATITCRASESVDNYGISFMNWFQQKPGQPPKLLIYAASSQGSGVPARFSGSGSGTDFTLTINPMEANDTANYYCQQSKEFPWTFGGGTKVEIKR
notes: hIgG4Pro/hIgK
B18: h15H11-14 (antibody, human IgG4 S228P, kappa, V domains shown)
VH: QVQLVQSGSELKKPGASVKVSCKASGYTFTDYNMHWVRQAPGRSLEWMGRINPKNGVINSNEKFKDRFVFSLDTSVSTAYLQISSLKAEDTAVYYCAPSYYGGDDDAYWGQGTLVTVSS
VL: DIVLTQSPASLAVSPGQRATITCRASESVDNYGISFMNWFQQKPGQPPKLLIYAASSQGSGVPARFSGSGSGTDFTLTINPMEANDTANYYCQQSKEFPWTFGGGTKVEIKR
notes: hIgG4Pro/hIgK
B19: h15H11-2 (antibody, human IgG4 S228P, kappa, V domains shown)
VH: QVQLVQSGSELKKPGASVKVSCKASGYTFTDYNMHWVRQAPGRSLEWMGRINPKNGVILSNEKFKDRFVFSLDTSVSTAYLQISSLKAEDTAVYYCAPSYYGGDDDAYWGQGTLVTVSS
VL: DIVLTQSPASLAVSPGQRATITCRASDSVDNYGISFLNWFQQKPGQPPKLLIYAASSQGSGVPARFSGSGSGTDFTLTINPMEANDTANYYCQQSKEFPWTFGGGTKVEIKR
notes: hIgG4Pro/hIgK
B20: h15H11-3 (antibody, human IgG4 S228P, kappa, V domains shown)
VH: QVQLVQSGSELKKPGASVKVSCKASGYTFTEYNMHWVRQAPGRSLEWMGRINPKNGVILSNEKFKDRFVFSLDTSVSTAYLQISSLKAEDTAVYYCAPSYYGGDDDAYWGQGTLVTVSS
VL: DIVLTQSPASLAVSPGQRATITCRASESVDNYGISFMNWFQQKPGQPPKLLIYAASSQGSGVPARFSGSGSGTDFTLTINPMEANDTANYYCQQSKEFPWTFGGGTKVEIKR
notes: hIgG4Pro/hIgK
B21: h15H11-10 (antibody, human IgG4 S228P, kappa, V domains shown)
VH: QVQLVQSGSELKKPGASVKVSCKASGYTFTEYNMHWVRQAPGRSLEWMGRINPKNGVILSNEKFKDRFVFSLDTSVSTAYLQISSLKAEDTAVYYCAPSYYGGNDDAYWGQGTLVTVSS
VL: DIVLTQSPASLAVSPGQRATITCRASESVDNYGISFMNWFQQKPGQPPKLLIYAASSQGSGVPARFSGSGSGTDFTLTINPMEANDTANYYCQQSKEFPWTFGGGTKVEIKR
notes: hIgG4Pro/hIgK

Biological target: T1, epitope peptide Cys-CE3C long
Assay: competitive ELISA, unlabeled vs biotin-labeled peptide, antibody on anti-human IgG plate
Protocol: A diluted solution of the obtained recombinant humanized antibody, a biotin-labeled immunogen peptide, and Streptavidin-HRP (manufactured by PIERCE) were added to an anti-human IgG antibody-immobilized plate, and reacted overnight at 4° C. […] Next, a recombinant human antibody at the dilution rate, a biotin-labeled immunogen peptide, and Streptavidin-HRP (manufactured by PIERCE) were added. At the same time, a dilution series of unlabeled immunogenic peptide was added and reacted overnight at 4° C. After washing twice with ELISA wash buffer, TMB-Substrate Chromogen (manufactured by Thermo Fisher Scientific) was added to develop color, the reaction was stopped with an equal amount of 0.5N sulfuric acid, and the absorbance at 450 nm was measured. The concentration of the unlabeled peptide which attenuated the signal of the biotin-labeled peptide by half was defined as the affinity (IC50).

Binder | IC50 [nM]
B1 | 1.44
B2 | 0.64
B3 | 0.62
B4 | 0.47
B5 | 0.57
B6 | 0.62
B7 | 0.52
B8 | 0.77
B9 | 0.58
B10 | 0.61
B11 | 0.6
B12 | 0.74
B13 | 0.74
B14 | 0.51
B15 | 0.7
B16 | 0.66
B17 | 0.68
B18 | 0.66
B19 | 0.48
B20 | 0.5
B21 | 0.61
